Data: patent US20150329824A1 (NATIONAL CHENG KUNG UNIVERSITY, published 2015)
No end group written: not given here.

Target: T1, membrane hyaluronidase Hyal-2 on spleen cells of NOD-SCID mice (mouse (spleen cells of NOD-SCID mice), UniProt O35632 21-448)
T1 construct: whole, on cells; Endogenous protein on mouse spleen cells, detected with an antibody against Hyal-2; also called hyaluronidase-2
T1 sequence (looked up): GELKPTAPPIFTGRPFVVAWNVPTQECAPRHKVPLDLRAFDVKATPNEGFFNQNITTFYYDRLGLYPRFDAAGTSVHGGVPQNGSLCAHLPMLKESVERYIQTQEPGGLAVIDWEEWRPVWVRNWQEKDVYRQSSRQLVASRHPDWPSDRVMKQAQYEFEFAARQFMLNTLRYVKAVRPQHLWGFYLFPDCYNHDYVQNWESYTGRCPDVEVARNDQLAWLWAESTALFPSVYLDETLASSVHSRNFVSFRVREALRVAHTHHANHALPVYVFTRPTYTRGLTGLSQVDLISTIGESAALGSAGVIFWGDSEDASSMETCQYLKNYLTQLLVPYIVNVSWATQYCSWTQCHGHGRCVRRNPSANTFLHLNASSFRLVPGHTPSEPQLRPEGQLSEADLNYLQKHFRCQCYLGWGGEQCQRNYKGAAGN
Test: epifluorescence and confocal microscopy of NOD-SCID spleen cells stained with TMR-Zfra1-31 and Hyal-2 antibody
Method: FIG. 2 includes photos showing the identification of Zfra⁺ Hyal-2⁺ spleen cells. A and B: Spleen cells of NOD-SCID mice were isolated and stained with synthesized peptide TMR-Zfra₁₋₃₁ and Hyal-2 (green fluorescence) antibody for 30 minutes on ice, and then fixed with 4% formaldehyde. Zfra bound to membrane hyaluronidase Hyal-2, as determined by epifluorescence and confocal microscopy.
In this example, spleen cells were isolated from immune deficient NOD-SCID mice, which are deficient in T and B lymphocytes and NK cells. The isolated spleen cells were stained with antibody against Hyal-2 (green) and TMR-Zfra (Zfra₁₋₃₁ labeled with red fluorescent tetramethylrodamine) for 30 minutes on ice, and then fixed with 4% formaldehyde (FIG. 2). […] These Hyal-2⁺ Zfra⁺ positive cells are interchangeably referred to as “Z cells,” for cells interacting with Zfra.

binding result: binds
B1: TMR-Zfra1-31 (Zfra1-31 labeled with red fluorescent tetramethylrodamine) (peptide)
peptide: MSSRRSSSCKYCEQDFRAHTQKNAATPFLAN
modifications: cysteine pairing not given here; also: tetramethylrhodamine (TMR) label, position not given here
notes: Synthesized full-length Zfra peptide with a TMR label, used to stain spleen cells; also called Tetramethylrhodamine-Zfra
